The target of the test is human Fn14 (full length) on cells (human) (UniProt Q9NP84). Kind of test: cell-based or functional assay.
human Fn14 (full length) on cells (human), sequence (Q9NP84 28-129): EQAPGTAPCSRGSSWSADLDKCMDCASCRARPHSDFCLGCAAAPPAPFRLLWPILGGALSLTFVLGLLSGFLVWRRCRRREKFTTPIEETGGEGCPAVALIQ

B1: ITEM-4 commercial anti-Fn14 monoclonal antibody (antibody, from another filing, V domains shown)
VH: QVQLQQSGPELVKPGASVKMSCKASGYTFTDFIIAWVKQRTGQGLEWIGEIYPGTGRTYYSEKFRGKATLTADKSSNTAYMQLSSLTSVDSAVYFCARRTIYYDYDGDYWGQGTTLTVSS
VL: DIVMTQAAFSNPVTLGTSASISCRSSKSLLHSNGITYLYWYLQKPGQSPQLLIYQMSNLASGVPDRFSSSGSGTDFTLRISRVEAEDVGVYYCAHNLELPWTFGGGTKLELK
In the case of B1, the ICAM-1 MFI on HRMC, 250 ng/mL rhTWEAK, mAb 0.1 µg/mL amounted to 9620 MFI.

Source of the values: US20220289857A1.
